Results on 3 molecules are retold here after patent US20210322559A1.

Non-standard residues stand in square brackets, D forms with d. No end group written: not given here. Hyp = O=C(O)[C@@H]1C[C@@H](O)CN1 Bounds are passed on as bounds.

In test [1] the target is porcine gelatin (denatured collagen) (porcine). The test can be described thus: fluorescence; CHP 15 µM premixed into 10% porcine gelatin, 5 washes at 4 °C (FIG. 6B).
The target is the same in test [2]. The test can be described thus: fluorescence in crosslinked gelatin film after 6 washes at 4 °C (FIG. 6A).

B1: 5r, (PPOGGPOOGOGOPGP-G3)2KG3K^CF (peptide)
chain: PP[Hyp]GGP[Hyp][Hyp]G[Hyp]G[Hyp]PGPGGGKGGGPGP[Hyp]G[Hyp]G[Hyp][Hyp]PGG[Hyp]PP
modifications: also: branched dimer: two arms grown from both amines of Lys19, residues 20-37 are the second arm written reversed, G3K with carboxyfluorescein on the C-terminal Lys attached at branch point Lys19
Turning to B1, the percent removal after washes at 4 °C in test [1] and in test [2] was greater than 95% throughout.

B2: 9r, (PGOGPGPOPOGOGPOPGOOPGGOOPPG-G3)2KG3K^CF (peptide)
chain: PG[Hyp]GPGP[Hyp]P[Hyp]G[Hyp]GP[Hyp]PG[Hyp][Hyp]PGG[Hyp][Hyp]PPGGGGKGGGGPP[Hyp][Hyp]GGP[Hyp][Hyp]GP[Hyp]PG[Hyp]G[Hyp]P[Hyp]PGPG[Hyp]GP
modifications: also: branched dimer: two arms grown from both amines of Lys31, residues 32-61 are the second arm written reversed, G3K with carboxyfluorescein on the C-terminal Lys attached at branch point Lys31
For the molecule B2, the percent removal after washes at 4 °C in test [1] and in test [2] was greater than 95% each time.

B3: 6r, (PGOPPOGGPOOGOGOPGP-G3)2KG3K^CF (peptide)
chain: PG[Hyp]PP[Hyp]GGP[Hyp][Hyp]G[Hyp]G[Hyp]PGPGGGKGGGPGP[Hyp]G[Hyp]G[Hyp][Hyp]PGG[Hyp]PP[Hyp]GP
modifications: also: branched dimer: two arms grown from both amines of Lys22, residues 23-43 are the second arm written reversed, G3K with carboxyfluorescein on the C-terminal Lys attached at branch point Lys22
As for B3, the percent removal after washes at 4 °C in test [1] and in test [2] was greater than 95% each time.
